Experimental data: patent US20170212131A1 (NEW YORK UNIVERSITY, published 2017)

B1: scFv235 (scFv, not shown: small tags and cut ends)
scFv: ELDVVMTQTPLTLSVTIGQPASISCKSSQSLLYSNGKTYLNWLLQRPGQSPKRLIYLVSKLDSGVPDRFTGSGSGTDFTLKISRVEAEDLGVYYCVQGTHSPLTFGAGTKLELKSSGGGGSGGGGGGSSRSSLEVQLQQSGPELVKPGASVKISCKTSEYTFTEYTKHWVKQSHGKSLEWIGSINPNNGDTYYNQKFTDKATLTVDKSSTTASMELRSLTFEDSAVYYCAMGDSAWFAYWGQGTLVTVSA
notes: Made in E. coli from the phage display library of hybridoma 6B2G12; also called the scFv; His-tagged scFv235
B2: antibody 6B2G12 (antibody, V domains shown)
VH: EVQLQQSGPELVKPGASVKISCKTSEYTFTEYTKHWVKQSHGKSLEWIGSINPNNGDTYYNQKFTDKATLTVDKSSTTASMELRSLTFEDSAVYYCAMGDSAWFAYWGQGTLVTVS
VL: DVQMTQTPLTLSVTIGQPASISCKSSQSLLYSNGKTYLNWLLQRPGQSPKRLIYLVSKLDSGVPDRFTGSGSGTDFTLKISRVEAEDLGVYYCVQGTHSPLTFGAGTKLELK
notes: Monoclonal antibody from hybridoma clone 6B2G12, whole antibody (about 150 kDa); also called parent antibody; parental antibody

How the values were obtained:
[1] = molecular target: T1, Tau-phospho-serine 396/404 peptide; test: ratio of SPR KD values
T1 construct: Synthetic 30-residue peptide (Keck Foundation, Yale University) used for panning, ELISA and Biacore

[2] = molecular target: T1, Tau-phospho-serine 396/404 peptide; test: SPR (Biacore 2000), scFv immobilized, peptide as analyte
Protocol: (§1) Briefly, scFv235/antibody (10 μg/ml) was diluted in 10 mM sodium acetate, pH 5.0, and was immobilized on a separate CMS sensor chip with an amine coupling kit (7 min contact time at 5 μl/min flow rate). Unreacted surface-bound material was blocked with ethanolamine. One channel of each sensor chip, prepared in the same way without scFv235 or antibody, was used to monitor the nonspecific binding of the peptide. All measurements were done with HBS-EP buffer (10 mM HEPES at pH 7.4, 150 mM NaCl, 3.4 mM EDTA and 0.005% surfactant P20) at flow rate of 5 μl/min at 25° C. After each measurement, the chip surface was regenerated with 10 μl of a buffer containing 500 mM NaCl and 0.1M glycine HCl, pH 8.0. […] Table 5 and Table 6 summarize the kinetics and specificity of binding of the 6B2G12 antibody and scFv235.

[3] = molecular target: T1, Tau-phospho-serine 396/404 peptide; test: as above; remark: listed apart in the source
Protocol: as §1

[4] = molecular target: T1, Tau-phospho-serine 396/404 peptide; test: ratio of association/dissociation from SPR
[5] = molecular target: T1, Tau-phospho-serine 396/404 peptide; test: SPR (Biacore 2000), antibody immobilized, peptide as analyte
Protocol: as §1

[6] = molecular target: T1, Tau-phospho-serine 396/404 peptide; test: as above; remark: listed apart in the source
Protocol: as §1

Binder | selectivity for the phosphorylated peptide (SEQ ID NO:28) relative to the non-phosphorylated peptide (SEQ ID NO:27) [1] | Kd [2] | Kd [3] | koff [3] | kon [3] | fold lower affinity than antibody 6B2G12 [4] | Kd [5] | Kd [6] | koff [6] | kon [6]
B1 | 3900 fold | 1040 nM | 994 nM | 0.0039 s⁻¹ | 3930 M⁻¹ s⁻¹ | ~2510 fold | – | – | – | –
B2 | – | – | – | – | – | – | 0.395 nM | 0.395 nM | 0.00146 s⁻¹ | 3.69e+06 M⁻¹ s⁻¹
